Consider three molecules from PMC5856776 (2018).

What all share (test): SPR
In general terms: SPR reads the build-up and loss of mass on a sensor chip optically.

In assay [1] the target is T1, type I collagen (BD-Biosciences) (UniProt P02454 152-1207; P02466 86-1125).
For assay [2], the target named is T1, type I collagen (BD-Biosciences). The source holds these as a separate data set.
The target is the same in assay [3]. The source holds these as a separate data set.

T1 sequence (P02454 152-1207, chain 1 of 2): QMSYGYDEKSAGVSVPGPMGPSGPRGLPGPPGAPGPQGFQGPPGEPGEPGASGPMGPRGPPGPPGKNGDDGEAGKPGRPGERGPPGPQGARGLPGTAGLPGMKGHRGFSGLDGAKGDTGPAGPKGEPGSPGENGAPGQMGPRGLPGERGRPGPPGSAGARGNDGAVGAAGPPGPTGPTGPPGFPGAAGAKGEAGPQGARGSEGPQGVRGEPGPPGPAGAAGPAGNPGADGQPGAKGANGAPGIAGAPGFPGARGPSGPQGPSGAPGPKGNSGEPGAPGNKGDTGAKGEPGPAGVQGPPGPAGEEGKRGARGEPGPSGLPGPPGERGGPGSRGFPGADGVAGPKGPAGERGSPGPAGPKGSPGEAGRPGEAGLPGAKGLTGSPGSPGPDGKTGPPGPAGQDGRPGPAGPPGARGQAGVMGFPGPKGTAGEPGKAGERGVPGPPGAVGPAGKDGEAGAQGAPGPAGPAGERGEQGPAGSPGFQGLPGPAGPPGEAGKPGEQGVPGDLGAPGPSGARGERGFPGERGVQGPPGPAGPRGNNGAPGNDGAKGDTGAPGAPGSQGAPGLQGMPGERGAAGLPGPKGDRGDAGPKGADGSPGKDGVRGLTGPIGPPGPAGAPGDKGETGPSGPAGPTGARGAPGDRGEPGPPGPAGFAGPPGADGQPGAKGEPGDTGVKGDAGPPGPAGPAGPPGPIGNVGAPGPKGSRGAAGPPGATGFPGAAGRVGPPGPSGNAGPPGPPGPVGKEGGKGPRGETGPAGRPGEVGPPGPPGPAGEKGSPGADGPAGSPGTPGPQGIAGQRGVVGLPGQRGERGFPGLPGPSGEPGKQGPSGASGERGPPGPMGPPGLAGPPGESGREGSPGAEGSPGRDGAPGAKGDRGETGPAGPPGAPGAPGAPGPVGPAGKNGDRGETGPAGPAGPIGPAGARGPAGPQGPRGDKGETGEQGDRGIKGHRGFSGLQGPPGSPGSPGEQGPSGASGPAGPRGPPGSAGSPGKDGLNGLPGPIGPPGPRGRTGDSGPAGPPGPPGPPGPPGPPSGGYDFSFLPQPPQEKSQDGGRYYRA
T1 sequence (P02466 86-1125, chain 2 of 2): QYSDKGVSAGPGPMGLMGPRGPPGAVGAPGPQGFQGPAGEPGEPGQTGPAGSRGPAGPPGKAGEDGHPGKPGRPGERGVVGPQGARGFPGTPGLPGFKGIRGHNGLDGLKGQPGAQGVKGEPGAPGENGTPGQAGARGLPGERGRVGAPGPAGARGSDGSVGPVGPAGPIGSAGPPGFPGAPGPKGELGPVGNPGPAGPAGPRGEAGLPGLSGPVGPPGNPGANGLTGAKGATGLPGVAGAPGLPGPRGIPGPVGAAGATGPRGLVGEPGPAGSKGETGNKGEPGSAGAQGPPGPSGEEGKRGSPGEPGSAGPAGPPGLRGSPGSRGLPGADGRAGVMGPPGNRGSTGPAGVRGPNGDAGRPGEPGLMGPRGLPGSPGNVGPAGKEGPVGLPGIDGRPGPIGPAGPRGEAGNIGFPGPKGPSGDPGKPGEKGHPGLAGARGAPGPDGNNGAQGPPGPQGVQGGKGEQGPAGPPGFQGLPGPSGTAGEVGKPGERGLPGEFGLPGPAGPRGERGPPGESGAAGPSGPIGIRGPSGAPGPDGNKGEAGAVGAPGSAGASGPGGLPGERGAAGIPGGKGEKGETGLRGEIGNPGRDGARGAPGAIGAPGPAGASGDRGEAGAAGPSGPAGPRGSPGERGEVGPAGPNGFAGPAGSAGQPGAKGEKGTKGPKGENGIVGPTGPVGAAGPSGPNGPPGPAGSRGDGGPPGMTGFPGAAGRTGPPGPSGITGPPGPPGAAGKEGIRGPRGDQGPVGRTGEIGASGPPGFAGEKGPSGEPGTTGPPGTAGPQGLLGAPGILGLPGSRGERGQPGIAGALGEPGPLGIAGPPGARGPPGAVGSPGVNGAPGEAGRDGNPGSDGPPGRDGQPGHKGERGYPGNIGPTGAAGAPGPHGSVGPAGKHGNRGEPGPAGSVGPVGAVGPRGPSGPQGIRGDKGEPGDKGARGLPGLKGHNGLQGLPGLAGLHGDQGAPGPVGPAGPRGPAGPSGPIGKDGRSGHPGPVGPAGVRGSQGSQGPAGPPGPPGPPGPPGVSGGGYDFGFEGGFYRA

B1: rCnm N1+2 (domain or fragment)
chain: SDVSNNVSSLTVSPTQINDGGKTTVRFEFDEHAQNIKAGDTITVNWQNSGTVRGTGYTKTIKLEVQGKYVGDLVVTQDKAVVTFNDSITGLQNITGWGEFEIEGRNFTDTTTGNTGSFQVTSGGKTSEVTVVKSASGTTGVFYYKTGDMQTDDTNHVRWFLNINNENAYVDSDIRIEDDIQSGQTLDIDSFDITVNGSESYRGQEGINQLAQRYGATISADSASGHISVYIPQGYASLNSFSIMYLTKVDNPDQKTFENNSKAWYKENGKDAVDGKEFNHSVANVNAAGGVDGR
As usually defined, the Kd is the concentration at which binding is half-saturated. A low value points to a tighter complex. In general, koff refers to a measure of how fast the partners let go of each other. On to B1, for which the Kd in assay [1] was determined as 817 nM. In assay [2], this molecule showed a koff of 0.0244 s⁻¹. In assay [3], this molecule yielded a Ka of 1.22e+06 M⁻¹.

B2: rCnm N2 (domain or fragment)
chain: ASGTTGVFYYKTGDMQTDDTNHVRWFLNINNENAYVDSDIRIEDDIQSGQTLDIDSFDITVNGSESYRGQEGINQLAQRYGATISADSASGHISVYIPQGYASLNSFSIMYLTKVDNPDQKTFENNSKAWYKENGKDAVDGKEFNHSVANVNAAGGVDGR
For B2, binding in assay [1] was put at a Kd of 4530 nM. In addition, the koff in assay [2] came out at 0.000335 s⁻¹. The Ka in assay [3] came to 221000 M⁻¹.

B3: full-length recombinant Cnm (rCnm-FL) (domain or fragment)
chain: ASDVSNNVSSLTVSPTQINDGGKTTVRFEFDEHAQNIKAGDTITVNWQNSGTVRGTGYTKTIKLEVQGKYVGDLVVTQDKAVVTFNDSITGLQNITGWGEFEIEGRNFTDTTTGNTGSFQVTSGGKTSEVTVVKSASGTTGVFYYKTGDMQTDDTNHVRWFLNINNENAYVDSDIRIEDDIQSGQTLDIDSFDITVNGSESYRGQEGINQLAQRYGATISADSASGHISVYIPQGYASLNSFSIMYLTKVDNPDQKTFENNSKAWYKENGKDAVDGKEFNHSVANVNAAGGVDGRTTTTTEKPTTTTEAPTTTEAPTTTEAPTTTETPTTTEAPTTTEAPTTTEAPTTTEAPTTTETPTTTEAPTTTEAPTTTEAPTTTEAPTTTEAPTTTEAPTTTEAPTTTEASSETTKAEEKTTEVKEPEKTTTTAPAGKT
Molecule B3 came in with a Kd in assay [1] of 289 nM. In assay [2], this molecule returned an off-rate (koff) of 0.00198 s⁻¹. For the same molecule, the Ka in assay [3] worked out at 3.46e+06 M⁻¹.
